Assay results: US12077763B2, “RNA-based control of powdery mildew” (Greenlight Biosciences, Inc., priority 2021, dated 2024)

B1: GS3335 (nucleic acid)
sense: UUGAGUACAGAGUAGUAGUAAUCUAUUUACAUGAAUUACAAGCUUGUACGGAUGAAUGUUUGUCAUAAGCCUACUCAUCUUUCAUGGCGAAUUUCCCAGGCGGCUAACUACUCUAAUUUGUGAGAGGCAUGAAAGUAAUGAUAGAUUUUCUCUAUGUAUAAUAAAUAGUACUCGUAUUUUAAUCAUUCAAACCCUAGUGAUAUCUUUUGUACUCUUCUCUUAUCAAAUUACAUCAAGUUCAUUCCGUCAUUUCUCGUUAUAUAUGACAUAUAAAGCAUUCCAUUCGCAUGAUAGAAAAUAAGUAAUAUGUAUAAUGACUCAAAGCCUUCACCCCAUAGCCAAAAAGUUGGGUUUAUAGUGAAACUUGUGACGUAGAGGGGAUUAAUAUCGCAUUUUCU
antisense: AGAAAAUGCGAUAUUAAUCCCCUCUACGUCACAAGUUUCACUAUAAACCCAACUUUUUGGCUAUGGGGUGAAGGCUUUGAGUCAUUAUACAUAUUACUUAUUUUCUAUCAUGCGAAUGGAAUGCUUUAUAUGUCAUAUAUAACGAGAAAUGACGGAAUGAACUUGAUGUAAUUUGAUAAGAGAAGAGUACAAAAGAUAUCACUAGGGUUUGAAUGAUUAAAAUACGAGUACUAUUUAUUAUACAUAGAGAAAAUCUAUCAUUACUUUCAUGCCUCUCACAAAUUAGAGUAGUUAGCCGCCUGGGAAAUUCGCCAUGAAAGAUGAGUAGGCUUAUGACAAACAUUCAUCCGUACAAGCUUGUAAUUCAUGUAAAUAGAUUACUACUACUCUGUACUCAA
B2: GS1796: dsRNA trigger SEQ ID NO 211; gene target Putative aldehyde dehydrogenase-like protein C922.07c (nucleic acid)
DNA: TACCCATCCCTGGCTTAAGTATTGATTTATACATTCTAAAAGAGAGTTCGACGCATATTATGATCTACATACGGAAGTTTGGTAGGATGACGAAAACTCCTAACTTTTAAATTGAAAATTCACCAATCTGACAACATATCTATCTTATTATTGTTGCCCTAATCACTGCCTTTAATGAAGGAATAAAAAATTAAAAGATGCCCGTCACTGACTAACGCTTTTTTTTTAATTAGCCAAATTATCAGTTAACTGCAAACCAGCTACAGCGAGACGGTTTAAGCTCCCATATTTACAAAAACTGACTTGATTTGAGTGTAACCAGCTAGACCAGCTTCTCCTAGCTCCCGTCCAATTCCACTCTGTTTTACACCACCAAATGGGACCTTAAAACTTGAATCATTACTTGAATTAATCCATACCATGCCTGATTCAATTTTTCGCGCTACCCGATGAGCCCTCGTAATATCCTTGGTAAATACTGCACTACCAAGGCCATAGGTAGTATCATTTGCTATCTTTAGGGCTTCTTCTTCTGTTTTAAAGCTATTTATGACAACAAAAGGGCCGAAGACTTCTTCACGAAATATTTTCATAGATG
B3: GS3333 (nucleic acid)
sense: AUAAAAGACUAAUAUGAUCUAAUUUAAAUCGAACUGAUUGAAAAACAUUUGAUUUGCAAUGAAAAUUAAUAUAUAAUCAAAUAAAAUCAAAUAUUUCUCACUCUGGUGCCGGCCCGUUGUGGUAGGAAGUGACCCAACUCUUAAAUCAGGUCAGCAACAUUCAUAGGCAUCUCUUCAAUUUGAGUGCUAUAAAACUGCUCAAUUUCACGCAUCAUCCGAACAUCAUCAGCUGUUACAAAGUUGAUCGCAACACCUUUUCGUCCAAAUCGACCACCUCGACCAAUUCUGUGAAUAUAAUUCUCACGAUUAGCAGGCAAGUCGUAAUUAAUAACUAAUGAAACUUGUUGUACAUCAAUACCACGAGCAAGAAGAUCAGUGGCAAUUAAAACACGGGAUGA
antisense: UCAUCCCGUGUUUUAAUUGCCACUGAUCUUCUUGCUCGUGGUAUUGAUGUACAACAAGUUUCAUUAGUUAUUAAUUACGACUUGCCUGCUAAUCGUGAGAAUUAUAUUCACAGAAUUGGUCGAGGUGGUCGAUUUGGACGAAAAGGUGUUGCGAUCAACUUUGUAACAGCUGAUGAUGUUCGGAUGAUGCGUGAAAUUGAGCAGUUUUAUAGCACUCAAAUUGAAGAGAUGCCUAUGAAUGUUGCUGACCUGAUUUAAGAGUUGGGUCACUUCCUACCACAACGGGCCGGCACCAGAGUGAGAAAUAUUUGAUUUUAUUUGAUUAUAUAUUAAUUUUCAUUGCAAAUCAAAUGUUUUUCAAUCAGUUCGAUUUAAAUUAGAUCAUAUUAGUCUUUUAU
B4: GS3320 (nucleic acid)
sense: UUAUCAUGCUGCCAUGGUUCAUAAGAAAAAAAUUUACUAAGAUUAGUAGGGAUGCAUAGACCUAAUGACACGCCCAUAAAAGUUGUAUGGCUAUCCCAACCAUGUUCAGAAAGUAUCUCGAGACCAUGAAUGCUUCUAGAAAUAAGGCCAAGUACGAAAAAUGCGGUUCCUCUCAUGCUCAUUAUUUCAUGCGAUUCUGCAAUUUUAAUUAUGUUCUGCACGACAUCUGAUUUUUCAAGAAAAGGAGCACCCAAUUCCAUAGAUCCAACGUUACCUACAGCCCAUAGGCAUCCUUUAACCUUAAGAAUAAUCUCUAAAUCAUCAUAAUGCAUUCCAUAUUCACGAAUGGUUGAGGCAAAUUCAUCAAAAUGACCUUUAUCAUGCAAGAGCUU
antisense: AAGCUCUUGCAUGAUAAAGGUCAUUUUGAUGAAUUUGCCUCAACCAUUCGUGAAUAUGGAAUGCAUUAUGAUGAUUUAGAGAUUAUUCUUAAGGUUAAAGGAUGCCUAUGGGCUGUAGGUAACGUUGGAUCUAUGGAAUUGGGUGCUCCUUUUCUUGAAAAAUCAGAUGUCGUGCAGAACAUAAUUAAAAUUGCAGAAUCGCAUGAAAUAAUGAGCAUGAGAGGAACCGCAUUUUUCGUACUUGGCCUUAUUUCUAGAAGCAUUCAUGGUCUCGAGAUACUUUCUGAACAUGGUUGGGAUAGCCAUACAACUUUUAUGGGCGUGUCAUUAGGUCUAUGCAUCCCUACUAAUCUUAGUAAAUUUUUUUCUUAUGAACCAUGGCAGCAUGAUAA
B5: GS3324 (nucleic acid)
sense: CAAACUCGCUCAAUUCUCCGUAUGACUAAUUGUUCUUAUACUUAUCCUGGCGCUUCAAAACCGUCUUUGCACAAUGUGUCUUGUCAACUCUCCCUUUCAUCUCGAACUGCAAUCAUAGGUGGUAAUGGUGCAGGAAAAUCAACGUUAAUAAAACUACUUACUGGCGAGACGGUCCCUACUUCUGGGCGAGUCGAAAAACACCCUAAUUUGCGAAUUGGAUAUAUAAAACAACAUGCACUUGAACAUGUUGAAAUGCAUCUCGAGAAAACCCCAAACCAAUAUCUUCAAUGGCGCUAUGCCAAUGGUGAUGAUCGUGAGGUACAUAUGAAACAGACUCGUAUUUUAUCGGAUGCUGAUAAAGCUCAAAUGGAAAAAUGGAUUGAUAUCGAUGGGAAG
antisense: CUUCCCAUCGAUAUCAAUCCAUUUUUCCAUUUGAGCUUUAUCAGCAUCCGAUAAAAUACGAGUCUGUUUCAUAUGUACCUCACGAUCAUCACCAUUGGCAUAGCGCCAUUGAAGAUAUUGGUUUGGGGUUUUCUCGAGAUGCAUUUCAACAUGUUCAAGUGCAUGUUGUUUUAUAUAUCCAAUUCGCAAAUUAGGGUGUUUUUCGACUCGCCCAGAAGUAGGGACCGUCUCGCCAGUAAGUAGUUUUAUUAACGUUGAUUUUCCUGCACCAUUACCACCUAUGAUUGCAGUUCGAGAUGAAAGGGAGAGUUGACAAGACACAUUGUGCAAAGACGGUUUUGAAGCGCCAGGAUAAGUAUAAGAACAAUUAGUCAUACGGAGAAUUGAGCGAGUUUG
B6: GS3319 (nucleic acid)
sense: GUGUUGAGACCUAAGAGCCUAUGAGUGAGUCACAUUACAACAGAAAGCCUCAAGUCUAAAGUCAUAACCUAUUAAAAUUCGAAAGCACAAAAACAUCCAUUAGGAACUGACUAAGUACAAGAGCUACUCCAUAAAAAUCAGUCGCAAUACAUGUUUUUGCAAAGCAGAUCAACCUGGUUAAGACGAGAAAUAACUUAGUAUUCAACGUAGCUAAAUCUCCAGGGUGUUAGUGUAGUAUAUUGACGUUUCCGAAAUAAUUAAAACCAGCAUCUUAGUUUGGUGUUAUUUGAUAUAUAUGAUAAGAUUCGUUUAGGAUUUAUUGGAAUUUAUUUGGCUGGUAUCUAAUGUAGAUUUGAUUGAUACCGUAUUAUCAAAUCAUUUUAU
antisense: AUAAAAUGAUUUGAUAAUACGGUAUCAAUCAAAUCUACAUUAGAUACCAGCCAAAUAAAUUCCAAUAAAUCCUAAACGAAUCUUAUCAUAUAUAUCAAAUAACACCAAACUAAGAUGCUGGUUUUAAUUAUUUCGGAAACGUCAAUAUACUACACUAACACCCUGGAGAUUUAGCUACGUUGAAUACUAAGUUAUUUCUCGUCUUAACCAGGUUGAUCUGCUUUGCAAAAACAUGUAUUGCGACUGAUUUUUAUGGAGUAGCUCUUGUACUUAGUCAGUUCCUAAUGGAUGUUUUUGUGCUUUCGAAUUUUAAUAGGUUAUGACUUUAGACUUGAGGCUUUCUGUUGUAAUGUGACUCACUCAUAGGCUCUUAGGUCUCAACAC
B7: ES53: dsRNA trigger SEQ ID NO 114; gene target Hypotethicai effector (nucleic acid)
DNA: ACGATTATCGCCAATTGGGGTGATACTGTTGTAGTACATGTTACTAATTCATTAATGAATAATGGAACGAGCATTCATTTTCATGGACTCCGGCAATTCGAAACAAACCAAATGGATGGTCCAACATCAATAACACAGTGTCCCATAGCTCCCGGTGATAGTTTTACATATAGATGGGTTGCCTCTCAGTACGGAAGTTCATGGTACCATGCTCATTTCGCCGTAC
B8: GS3323 (nucleic acid)
sense: AGGCGUGGACUGUAGCCUCAAUAGCAUACACUGAAUCGAAUGAGUUGUCAGGAAAUGACAUUUGCAUAAAGUCACCCUUAACAAAGCUUAAUUGGUUUGAUAAGCCUUCUUUCUGUGCAUAUCUCGUGGCCCGCUCUAUUUGGUAAUCAUUGUUGUUCAAGCCAGUAAUAUGAGCGCCAGUAAACUUGGCGAUUUCUCUUGCCGGACCACCAACACCACAUCCGACAUCAAGUACUUUGUCUGCCUCAUUAAUGCCUAUCUUAGCGGCAAGAUAAUGUUCAUGUCGCGCAAUCGCUUGGUAAAAUGGUUCACCGUAAGCAAAUCUACAGAAGUGAAAAGAUUGUCCCCAGCCGUAUUCGUAAAGAUCGGUGCCGAGAUUAUAGUACUGUCUUGUCAAA
antisense: UUUGACAAGACAGUACUAUAAUCUCGGCACCGAUCUUUACGAAUACGGCUGGGGACAAUCUUUUCACUUCUGUAGAUUUGCUUACGGUGAACCAUUUUACCAAGCGAUUGCGCGACAUGAACAUUAUCUUGCCGCUAAGAUAGGCAUUAAUGAGGCAGACAAAGUACUUGAUGUCGGAUGUGGUGUUGGUGGUCCGGCAAGAGAAAUCGCCAAGUUUACUGGCGCUCAUAUUACUGGCUUGAACAACAAUGAUUACCAAAUAGAGCGGGCCACGAGAUAUGCACAGAAAGAAGGCUUAUCAAACCAAUUAAGCUUUGUUAAGGGUGACUUUAUGCAAAUGUCAUUUCCUGACAACUCAUUCGAUUCAGUGUAUGCUAUUGAGGCUACAGUCCACGCCU

Tested on: E. necator
Assay: Leaf disc assay, dry inoculum (settling tower), decrease in disease severity / hyphal growth (Example 2)
Settings: decrease in disease severity (hyphal growth) relative to untreated control, value ± SE; for % decrease =/− SE TP1: time point 1 (untreated control hyphal growth ≥50%); for % decrease =/− SE TP2: time point 2

| Molecule | % decrease =/− SE TP1 | % decrease =/− SE TP2 |
| --- | --- | --- |
| B1 | 12 ± 6% |  |
| B2 |  | 1 ± 8% |
| B3 | 5 ± 6% |  |
| B4 | 20 ± 8% | 5 ± 8% |
| B5 | 12 ± 7% | 14 ± 7% |
| B6 | 23 ± 8% | 25 ± 7% |
| B7 | 4 ± 1% |  |
| B8 | 26 ± 7% | 19 ± 7% |
